Measured values as given in patent US10428140B2, “Anti-EphA4 antibody” (EISAI R&D MANAGEMENT CO., LTD., priority 2015, dated 2019).
Where a chain is given by its changes, count along the chain named.

T1: human EphA1 (Homo sapiens, UniProt P21709)
T1 construct: a protein of the extracellular region of each human Eph receptor fused with the SEAP protein and the His tag; made in house; host or cells: Expi293F cells (culture supernatant)
T1 sequence (P21709 26-547 limits assumed): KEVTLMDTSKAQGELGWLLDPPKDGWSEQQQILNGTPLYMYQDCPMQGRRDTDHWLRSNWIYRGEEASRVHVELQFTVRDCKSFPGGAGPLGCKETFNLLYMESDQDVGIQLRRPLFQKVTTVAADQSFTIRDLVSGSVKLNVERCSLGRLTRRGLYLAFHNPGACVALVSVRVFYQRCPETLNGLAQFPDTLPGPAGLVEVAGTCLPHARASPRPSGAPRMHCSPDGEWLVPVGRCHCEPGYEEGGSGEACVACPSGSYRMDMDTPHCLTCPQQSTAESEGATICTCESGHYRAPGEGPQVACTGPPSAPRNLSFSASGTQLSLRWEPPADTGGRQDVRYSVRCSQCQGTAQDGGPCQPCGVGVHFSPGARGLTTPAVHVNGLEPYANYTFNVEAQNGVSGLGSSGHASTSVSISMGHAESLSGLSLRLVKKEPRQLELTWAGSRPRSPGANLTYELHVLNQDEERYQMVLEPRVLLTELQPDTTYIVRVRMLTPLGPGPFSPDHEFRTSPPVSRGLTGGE

T2: human EphA8 (Homo sapiens, UniProt P29322)
T2 construct: a protein of the extracellular region of each human Eph receptor fused with the SEAP protein and the His tag; made in house; host or cells: Expi293F cells (culture supernatant)
T2 sequence (P29322 28-542 limits assumed): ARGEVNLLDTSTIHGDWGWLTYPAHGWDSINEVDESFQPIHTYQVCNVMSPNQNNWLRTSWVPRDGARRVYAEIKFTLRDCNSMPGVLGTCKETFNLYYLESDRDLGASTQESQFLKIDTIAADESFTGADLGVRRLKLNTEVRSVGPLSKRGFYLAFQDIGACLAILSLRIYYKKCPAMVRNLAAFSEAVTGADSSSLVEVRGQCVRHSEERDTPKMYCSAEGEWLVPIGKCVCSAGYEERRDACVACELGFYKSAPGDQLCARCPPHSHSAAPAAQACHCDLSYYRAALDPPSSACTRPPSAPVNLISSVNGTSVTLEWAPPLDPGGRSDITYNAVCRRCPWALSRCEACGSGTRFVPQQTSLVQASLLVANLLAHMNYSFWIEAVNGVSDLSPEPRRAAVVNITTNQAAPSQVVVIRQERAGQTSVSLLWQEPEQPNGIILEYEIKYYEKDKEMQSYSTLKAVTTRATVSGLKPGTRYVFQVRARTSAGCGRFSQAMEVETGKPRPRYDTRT

T3: human EphA6 (Homo sapiens, UniProt Q9UF33)
T3 construct: a protein of the extracellular region of each human Eph receptor fused with the SEAP protein and the His tag; made in house; host or cells: Expi293F cells (culture supernatant)
T3 sequence (Q9UF33 23-550 limits assumed): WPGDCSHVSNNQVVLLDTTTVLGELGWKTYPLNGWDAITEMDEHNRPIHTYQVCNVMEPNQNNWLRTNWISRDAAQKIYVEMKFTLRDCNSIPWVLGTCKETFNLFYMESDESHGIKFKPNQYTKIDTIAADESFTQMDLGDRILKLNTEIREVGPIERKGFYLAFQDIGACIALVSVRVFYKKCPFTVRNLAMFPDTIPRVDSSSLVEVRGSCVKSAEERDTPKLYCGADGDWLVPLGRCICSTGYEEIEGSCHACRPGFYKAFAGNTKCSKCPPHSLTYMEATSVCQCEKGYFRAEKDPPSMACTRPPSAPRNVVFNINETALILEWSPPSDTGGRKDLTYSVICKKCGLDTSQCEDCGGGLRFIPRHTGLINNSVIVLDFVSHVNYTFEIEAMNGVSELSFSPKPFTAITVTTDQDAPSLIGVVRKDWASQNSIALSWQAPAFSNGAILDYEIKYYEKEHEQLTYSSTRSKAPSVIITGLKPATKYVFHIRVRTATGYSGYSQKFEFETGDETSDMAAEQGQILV

B1: 76 (antibody, V domains shown)
VH: QVQLVQSGSELKKPGASVKVSCKASGYTFTDYSMHWVRQAPGQGLKWMGWINTETGEPTYAQGFTGRFVFSLDTSVSTAYLQISSLKAEDTAVYYCARIPLYYYGSRYWYFDVWGQGTTVTVSS
VL: DIQMTQSPSSLSASVGDRVTITCRASENIYRNLAWYQQKPGKAPKLLVYAATNLADGVPSRFSGSGSGTDYTLTISSLQPEDFATYYCQHFWGTPWTFGQGTKVEIK
modifications: synthetic humanized antibody heavy chain variable region sequence; synthetic humanized antibody light chain variable region sequence
B2: 67 (antibody, V domains shown)
VH: B1 VH with V2I
VL: B1 VL
modifications: synthetic humanized antibody heavy chain variable region sequence; synthetic humanized antibody light chain variable region sequence
B3: 77 (antibody, V domains shown)
VH: B1 VH with K46E, Q62D, G63D, T65K
VL: B1 VL
modifications: synthetic humanized antibody heavy chain variable region sequence; synthetic humanized antibody light chain variable region sequence
B4: 78 (antibody, V domains shown)
VH: B1 VH with Q62D, G63D, T65K
VL: B1 VL
modifications: synthetic humanized antibody heavy chain variable region sequence; synthetic humanized antibody light chain variable region sequence
B5: 156 (antibody, V domains shown)
VH: B1 VH with V2I
VL: B1 VL with K45Q, V48L
modifications: synthetic humanized antibody heavy chain variable region sequence; synthetic humanized antibody light chain variable region sequence
B6: 136 (antibody, V domains shown)
VH: B1 VH with Q62D, G63D, T65K
VL: EIVMTQSPATLSVSPGERATLSCRASENIYRNLAWYQQKPGQSPRLLIYAATNLADGIPARFSGSGSGTEYTLTISSLQSEDFAVYYCQHFWGTPWTFGQGTKVEIK
modifications: synthetic humanized antibody heavy chain variable region sequence; synthetic humanized antibody light chain variable region sequence

Each molecule was assayed against T1, human EphA1 (assay: Selectivity ELISA of humanized antibodies for human Eph receptor). Settings: coated protein 1 nM.
Type: binding
Outline: (§1)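 Steps: coat anti-His antibody; block, then 1% BlockAce overnight at 4 °C; add Eph receptor extracellular region-SEAP-His (1 nM final) 1 h; add humanized antibody 1 h; add HRP anti-IgG 1 h; develop TMB; stop with acid; read 450 nm.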

B1 was tested. Which “hEphA1-SEAP-: absorbance at 450 nm, percentage with respect to hEphA4-SEAP-His as 100%” value did it give?
Its value is 5.1%.

Which “hEphA1-SEAP-: absorbance at 450 nm, percentage with respect to hEphA4-SEAP-His as 100%” value does the source give for B2 here?
Its value is 4.6%.

B3 was tested. Which “hEphA1-SEAP-: absorbance at 450 nm, percentage with respect to hEphA4-SEAP-His as 100%” value did it give?
The value was 4.5%.

How did the “hEphA1-SEAP-: absorbance at 450 nm, percentage with respect to hEphA4-SEAP-His as 100%” value turn out when B4 was run?
The value was 6.6%.

B5 was tested. Which “hEphA1-SEAP-: absorbance at 450 nm, percentage with respect to hEphA4-SEAP-His as 100%” value did it give?
Its value is 5.7%.

With B6 as the molecule, how does the “hEphA1-SEAP-: absorbance at 450 nm, percentage with respect to hEphA4-SEAP-His as 100%” value read?
The value was 5.3%.

These molecules were tested against T4, human EphA4 (Homo sapiens, UniProt P54764) in the same assay as above. Settings: coated protein 1 nM; reference set to 100%.
T4 construct: made in house; not restated for the human SEAP-His protein
Type: binding
Outline: as §1

T4 sequence (P54764 20-547): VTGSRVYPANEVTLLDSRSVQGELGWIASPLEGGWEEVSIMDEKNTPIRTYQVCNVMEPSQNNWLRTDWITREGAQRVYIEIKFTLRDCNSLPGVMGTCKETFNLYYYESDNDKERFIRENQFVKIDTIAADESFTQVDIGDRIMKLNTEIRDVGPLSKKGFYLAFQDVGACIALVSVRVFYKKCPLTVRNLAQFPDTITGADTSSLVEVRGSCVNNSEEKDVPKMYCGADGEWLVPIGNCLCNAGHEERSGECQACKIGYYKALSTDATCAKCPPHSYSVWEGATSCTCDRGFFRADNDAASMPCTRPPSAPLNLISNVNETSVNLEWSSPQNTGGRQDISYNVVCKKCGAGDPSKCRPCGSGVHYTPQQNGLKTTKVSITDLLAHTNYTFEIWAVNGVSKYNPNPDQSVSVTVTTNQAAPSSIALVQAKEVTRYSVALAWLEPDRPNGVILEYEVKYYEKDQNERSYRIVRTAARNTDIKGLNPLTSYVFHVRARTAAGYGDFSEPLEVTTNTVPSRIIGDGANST

How did the “hEphA4-SEAP-: absorbance at 450 nm, percentage with respect to hEphA4-SEAP-His as 100%” value turn out when B1 was run?
The value was 100%.

Which “hEphA4-SEAP-: absorbance at 450 nm, percentage with respect to hEphA4-SEAP-His as 100%” value does the source give for B2 here?
The value was 100%.

Which “hEphA4-SEAP-: absorbance at 450 nm, percentage with respect to hEphA4-SEAP-His as 100%” value does the source give for B3 here?
Its value is 100%.

For B4, which “hEphA4-SEAP-: absorbance at 450 nm, percentage with respect to hEphA4-SEAP-His as 100%” value is on record?
The value was 100%.

B5 was tested. Which “hEphA4-SEAP-: absorbance at 450 nm, percentage with respect to hEphA4-SEAP-His as 100%” value did it give?
Its value is 100%.

With B6 as the molecule, how does the “hEphA4-SEAP-: absorbance at 450 nm, percentage with respect to hEphA4-SEAP-His as 100%” value read?
Its value is 100%.

What follows are molecules tested against T2, human EphA8 in the same assay as above. Settings: coated protein 1 nM.
Type: binding
Outline: as §1

With B1 as the molecule, how does the “hEphA8-SEAP-: absorbance at 450 nm, percentage with respect to hEphA4-SEAP-His as 100%” value read?
The value was 5.5%.

How did the “hEphA8-SEAP-: absorbance at 450 nm, percentage with respect to hEphA4-SEAP-His as 100%” value turn out when B2 was run?
The value was 4.7%.

B3 was tested. Which “hEphA8-SEAP-: absorbance at 450 nm, percentage with respect to hEphA4-SEAP-His as 100%” value did it give?
The value was 4.8%.

B4 was tested. Which “hEphA8-SEAP-: absorbance at 450 nm, percentage with respect to hEphA4-SEAP-His as 100%” value did it give?
The value was 5.4%.

B5 was tested. Which “hEphA8-SEAP-: absorbance at 450 nm, percentage with respect to hEphA4-SEAP-His as 100%” value did it give?
The value was 5.5%.

Which “hEphA8-SEAP-: absorbance at 450 nm, percentage with respect to hEphA4-SEAP-His as 100%” value does the source give for B6 here?
Its value is 5.4%.

Each molecule was assayed against T5, human EphA2 (Homo sapiens, UniProt P29317) in the same assay as above. Settings: coated protein 1 nM.
T5 construct: a protein of the extracellular region of each human Eph receptor fused with the SEAP protein and the His tag; made in house; host or cells: Expi293F cells (culture supernatant)
Type: binding
Outline: as §1

T5 sequence (P29317 24-537 limits assumed): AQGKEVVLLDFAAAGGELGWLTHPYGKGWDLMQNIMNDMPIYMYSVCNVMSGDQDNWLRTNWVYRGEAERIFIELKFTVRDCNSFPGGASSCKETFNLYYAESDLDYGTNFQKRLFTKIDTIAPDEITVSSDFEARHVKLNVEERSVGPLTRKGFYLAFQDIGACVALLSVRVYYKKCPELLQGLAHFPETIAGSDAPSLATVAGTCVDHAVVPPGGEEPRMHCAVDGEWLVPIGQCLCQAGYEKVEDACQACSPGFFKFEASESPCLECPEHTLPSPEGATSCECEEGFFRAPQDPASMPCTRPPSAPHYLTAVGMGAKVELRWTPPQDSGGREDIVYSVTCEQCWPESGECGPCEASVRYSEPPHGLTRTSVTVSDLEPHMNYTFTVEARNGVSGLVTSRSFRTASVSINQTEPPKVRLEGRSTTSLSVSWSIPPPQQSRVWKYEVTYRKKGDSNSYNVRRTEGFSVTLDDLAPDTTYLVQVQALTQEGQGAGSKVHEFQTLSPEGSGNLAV

With B1 as the molecule, how does the “hEphA2-SEAP-: absorbance at 450 nm, percentage with respect to hEphA4-SEAP-His as 100%” value read?
The value was 4.8%.

With B2 as the molecule, how does the “hEphA2-SEAP-: absorbance at 450 nm, percentage with respect to hEphA4-SEAP-His as 100%” value read?
Its value is 4.6%.

Which “hEphA2-SEAP-: absorbance at 450 nm, percentage with respect to hEphA4-SEAP-His as 100%” value does the source give for B3 here?
The value was 4.5%.

Which “hEphA2-SEAP-: absorbance at 450 nm, percentage with respect to hEphA4-SEAP-His as 100%” value does the source give for B4 here?
Its value is 4.9%.

How did the “hEphA2-SEAP-: absorbance at 450 nm, percentage with respect to hEphA4-SEAP-His as 100%” value turn out when B5 was run?
The value was 5.5%.

With B6 as the molecule, how does the “hEphA2-SEAP-: absorbance at 450 nm, percentage with respect to hEphA4-SEAP-His as 100%” value read?
The value was 5.1%.

Each molecule was assayed against T3, human EphA6 in the same assay as above. Settings: coated protein 1 nM.
Type: binding
Outline: as §1

How did the “hEphA6-SEAP-: absorbance at 450 nm, percentage with respect to hEphA4-SEAP-His as 100%” value turn out when B1 was run?
The value was 7.9%.

With B2 as the molecule, how does the “hEphA6-SEAP-: absorbance at 450 nm, percentage with respect to hEphA4-SEAP-His as 100%” value read?
The value was 7.3%.

Which “hEphA6-SEAP-: absorbance at 450 nm, percentage with respect to hEphA4-SEAP-His as 100%” value does the source give for B3 here?
Its value is 6.0%.

How did the “hEphA6-SEAP-: absorbance at 450 nm, percentage with respect to hEphA4-SEAP-His as 100%” value turn out when B4 was run?
The value was 10.0%.

B5 was tested. Which “hEphA6-SEAP-: absorbance at 450 nm, percentage with respect to hEphA4-SEAP-His as 100%” value did it give?
The value was 8.9%.

How did the “hEphA6-SEAP-: absorbance at 450 nm, percentage with respect to hEphA4-SEAP-His as 100%” value turn out when B6 was run?
The value was 7.2%.
